# Reference: the nanobody polyreactivity screen of Harvey et al. (2022)
# Test: yeast display, Sf9 membrane polyspecificity reagent, FACS + sequencing; frameworks hold sequencing errors
# Outline: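 Using colony PCR, genes from sorted yeast display clones were amplified, then sequenced on MiSeq at 2 × 250 and filtered by CDR length. The clones had been stained with 10% biotinylated, detergent-solubilized Sf9 membrane reagent for 1 hour at 4 °C and sorted by FACS into low and high (top ~1%) gates on anti-HA and streptavidin fluorescence. Polyreactivity labels come from the gate of origin.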
row,Sequence,polyreactivity (PSR sort gate)
1,QVQLVESGGGLVQAGGSLRLSCAASGFIFRTNAMGWYRQAPGKERELVAAITSSGGTTFYADSVKGRFTISRDNAKNTVYLQMNSLKPEDTAVYYCAAAYKHRTRSWTYGYWGQGTQVTVSS,high polyreactivity
2,QVQLVESGGGLVQAGGSLRLSCAASGFIFRVNAMGWSRQEPGKERELVAAISASGGTTYYADSVKGRFTISRDNAKNTVYLQMNSQKPEDTAVYYCIAPSRTRYDFWGQGTQVTVSW,low polyreactivity
3,QVQLVESGGGLVQAGGSLRLSCAASGFIFRVNAMGWYRPAPGKERELVAAITKSGGSTYYADSVKGRFTISRDNAKNTVYLQMNSLKPEDTAVYYCNVVWYEGYGHWGQGTQVTVSS,low polyreactivity
4,QVQLVESGGGLVQAGGSLRLSCAASGFIFRWNAMGWYRQAPGKVRELVAAISNSDGSTYYADSVKGRFTISRDNAKNTVYVQMNSLKPEDTAVYYCYKLYRGGWYDYWGQGTQVTVSS,low polyreactivity
5,QVQLVESGGGLVQAGGSLRLSCAASGFIFRWYAMGWYRQAPGKERELVAAITWRGGSTYADSVKGRFTISRDNAKNTVYLQMNSLKPEDTAVCYCAAETHRRYDYWGQGTQVTVSS,high polyreactivity
6,QVQLVESGGGLVQAGGSLRLSCAASGFIFRYNAMGWYRQAPGKERELVAAITSNGGRTYYADSVKGRFTISRDNAKNTVYLQMNSLKPEDTAVYYCNALGRTYPAYQDDYWGQGTQVTVSS,high polyreactivity
7,QVQLVESGGGLVQAGGSLRLSCAASGFIFRYYAKGWYRQAPGKERELVAAISSSGGSTYYADSVKGRFTISRDNAQKTVYLQMNSLKPEDTAVYYCNAYNYGYIGYGYNYWGQGTQVTVSS,high polyreactivity
8,QVQLVESGGGLVQAGGSLRLSCAASGFIFRYYAMGLYRHAPGKERELVASISSGGSTDYADSVKGRFTISRDNAKNTVYLQMNSLKPEDTAVYYCAAGYRSLSLHVGSYRYYYRGQGTQVTVSS,high polyreactivity
9,QVQLVESGGGLVQAGGSLRLSCAASGFIFRYYAMGWARQAPAKERELVAAISWSGTRTFYADSVKARFTISRDNAKNTVYLQMNSLKPEDTAVYYCAAETTGYDSYIQYEYWGQGTQVTVSS,high polyreactivity
10,QVQLVESGGGLVQAGGSLRLSCAASGFIFRYYAMGWLRQAPGKERELVAAISWSGGNTYYADSVKGRFTISRDNAKNTVYLQMNSLKPEDTAVYYCAARVARISVPYDYWGQGTQVTVSS,low polyreactivity
11,QVQLVESGGGLVQAGGSLRLSCAASGFIFRYYAMGWYIQAPGKERELVAAITISGTRTYYADSVKGRFTISRDNAKNTVYLQMNSLKPEDTAVYYCAAYTSVRPKLDYWGQGTQVTVSS,high polyreactivity
12,QVQLVESGGGLVQAGGSLRLSCAASGFIFRYYAMGWYRQAPGKEREFVAGITGTGGSTYYADSVKGRFTISRDNAKNTVYLQMNSLKPEDTAVYYCAADLWYFSSRVRYGYWGQGTQVTVSS,high polyreactivity
13,QVQLVESGGGLVQAGGSLRLSCAASGFIFRYYAMGWYRQAPGKEREFVAVISSGGGRTYYADSVKGRFTISRDNAKNTVYLQMNSLKPEDTAVYYCAKGYRYWVRIVRSFTSYDYWGQGTQVTVSS,high polyreactivity
14,QVQLVESGGGLVQAGGSLRLSCAASGFIFRYYAMGWYRQAPGKERELDAAISGSGGSTYYADSVKGRFTISRDNAKNTVYLQMNSLKPEDTAVYYCAKSYGSHRKIRTSFGYWGQGTQVTVSS,high polyreactivity
15,QVQLVESGGGLVQAGGSLRLSCAASGFIFRYYAMGWYRQAPGKERELVAAIRRGGSTYYADSVKGRFTISRDNAKNTVYLQMNSLKPEDTAVYYCAASFWGIAMGYWGQGTQVTVSS,high polyreactivity
16,QVQLVESGGGLVQAGGSLRLSCAASGFIFRYYAMGWYRQAPGKERELVAAISGSGGSTYYADSVKGRFTISRDNAKNTVYLQMNSLKPEDTAVYYCAAYYYGYEYWGQGTQVTVSS,high polyreactivity
17,QVQLVESGGGLVQAGGSLRLSCAASGFIFRYYAMGWYRQAPGKERELVAAISWSGSSTYYADSVKGRFTISRDNAKNTVYLQMNSLKPEDTAVYYCNAVTRNARDYWGQGTLVTVSS,high polyreactivity
18,QVQLVESGGGLVQAGGSLRLSCAASGFIFRYYAMGWYRQAPGKERELVAAITSDGSTYYADSVKGRFTISRDNAKNTVYLQMNSLKPEDTAVYYCARSVYRFYLKTRASDYWGQGTQETVSS,high polyreactivity
19,QVQLVESGGGLVQAGGSLRLSCAASGFIFRYYAMGWYRQAPGKERELVAAITSRGSSTYYADSVKGRFTISRDNAKNTVYLQMNSLKPEDTAVYYCAARLRGDYVRYDYWGQGTQVTVSS,high polyreactivity
20,QVQLVESGGGLVQAGGSLRLSCAASGFIFRYYAMGWYRQAPGKERELVARIRSSGGSTYYADSVKGRFTISRDNAKKTVYLKMNSLKPEDTAVYYCDTVSYITYYGGYGYWGQGTQVTVSS,high polyreactivity
21,QVQLVESGGGLVQAGGSLRLSCAASGFIFRYYAMGWYRQAPGKERELVATINSSGGSTYYADSVKGRFTISRDNAKNTVYLQMNSLKPEDTAVYYCYAGYVSYRGQSRYEYWGQGTQVTVSS,high polyreactivity

row,Sequence,polyreactivity (PSR sort gate)
1,QVQLVESGGGLVQAGGSLRLSCAASGFIFRYYTMGWYRQAPGKERELVAAISYSGGRTYYADSVKGRFTISRDNAKNTVYLQMNSVKPEDTAVYYCAARQGYVDDDYWGQGTQVTVSS,high polyreactivity
2,QVQLVESGGGLVQAGGSLRLSCAASGFIFRYYTMGWYRQAPGKERELVAAITSGGSTTYADSVKGRFTISRDNAKNTVYFQMNSLKPEDTAVYYCNTAYWYSLYDYWGQGTQVTVSS,high polyreactivity
3,QVQLVESGGGLVQAGGSLRLSCAASGFIFRYYTMGWYRQAPRKERELVASITSGGSTYYADSVKGRFTSSRDNAKNTVYLQMNCLKPEDTAVYSCAKHRDVLWRYKYWGQGTQVTVSS,high polyreactivity
4,QVQLVESGGGLVQAGGSLRLSCAASGFIFRYYVMGWYRQAPGKERELVAAITGSGGSTYYADSVKGRFTISRDNAKNTVYLQMNSLKPEDTAVYYCAARVWPIVQNYYWGQGTQVTVSS,high polyreactivity
5,QVQLVESGGGLVQAGGSLRLSCAASGFIFSCYAMGWDRQAPGKERELVAAISWSGGSTYYADSVKGRFTISRDNAKNTVYLQMNSLKPEDTAVYYCAADRGYRRLFLNNVDYWGQGTQVTVSS,high polyreactivity
6,QVQLVESGGGLVQAGGSLRLSCAASGFIFSENAMGWYRQAPGKERELVAAISDGGGSTYYADSVKGRFTISRDNAKNTVYLQMNSLKPEDTAVYYCNAVYHPKGPSGYGYWGQGTQVTVSS,low polyreactivity
7,QVQLVESGGGLVQAGGSLRLSCAASGFIFSKNAMGWSRQAPGKERELVAAISYSGGSTYYADSVKGRFTISRDNAKNTVYLQMNSLKPEDTAVNYCAAGGIYAPSSEYDSWGQGTQVTVSS,low polyreactivity
8,QVQLVESGGGLVQAGGSLRLSCAASGFIFSKNVMGWYRQAPGKERELVARITRSGGTTYYADSVKVRFTISRDNAKNTVYLQMHRLKQEDTAVYYCAARRYGYTSITWYDYWGQGTQVTVSS,high polyreactivity
9,QVQLVESGGGLVQAGGSLRLSCAASGFIFSKYAMGWYRQAPGKERELVAAISWNGGSTYYADSVKGRFTISRDNAKNTVYLQMNSLKPEDTAVYYCNTGYGRIRRPGALDYWGQGTQVTVSS,high polyreactivity
10,QVQLVESGGGLVQAGGSLRLSCAASGFIFSLYAMGWYRQAPGKERELVAAITRGGSTKYADSVKGRFTISRDNAKNTVYLQMNSLKPEDTAVYYCAARYNGKLNWGQGTQVTVSS,high polyreactivity
11,QVQLVESGGGLVQAGGSLRLSCAASGFIFSLYAMGWYRQAPGTERELVAAISKRGGSTNYADSVKGRFTISRDNAKNTVYLQMNSLKPEDTAVYYCAKARPGFLYDHWGQGTQVTVSS,high polyreactivity
12,QVQLVESGGGLVQAGGSLRLSCAASGFIFSNNAMGWYIEAPGKERELVAVINGGGSTYYADSVKGRFTISRDNAKNTVYLQMNSLKPEDTAVYYCARKSWPKEGRVDPGYDYWGQGTQVTVSS,low polyreactivity
13,QVQLVESGGGLVQAGGSLRLSCAASGFIFSNNDRGLYRQAPGKDREVVAVINGGGSTYYADSVKASFTISRDNAKNTVFLQMNSLKPEDTAVYYCARKSWPKERRVDPGYDYWGQGTKVTVSS,low polyreactivity
14,QVQLVESGGGLVQAGGSLRLSCAASGFIFSPNAMGWYRQAPGKEREFVAAIRYSGTSTSYADSVKGRFTISRDNAKNTVYLQMNSLKPEDTAVYYCAAGRSNSYSPRRRVTYGYNYWGQGTQVTVSS,high polyreactivity
15,QVQLVESGGGLVQAGGSLRLSCAASGFIFSRYAMGWYRQAPGKERELVAAISWSGASTYYADSVKGRFTISRDNAKNTVYLQMNSLKPEYTAVYYCNAVVTYHYSVSSVGSRYDYWGQGTQVTVSS,high polyreactivity
16,QVQLVESGGGLVQAGGSLRLSCAASGFIFSRYDMGWYRQAPGKERELVAAIDWSGDSTYYADSVKGRFTISRDNAKHTVYLQMNSLQPEDTAVYYCAAYYYWGQGTQVTVSS,low polyreactivity
17,QVQLVESGGGLVQAGGSLRLSCAASGFIFSRYTMGWYRQAPGKERELVAAITARGSSTYYADSVKGRFTISRDIAKNTVYLQMISLKPEDTAVYYCNAGQYVFYRPYDYWGQGTQVTVSS,high polyreactivity
18,QVQLVESGGGLVQAGGSLRLSCAASGFIFSSYAMGWYRQAPGKEREFVAAIDWNSTSTYYADSVKGRFTISRDNAKNTVYLQMNSLKPEDTAVYYCAADWVGYFVYPYDYWGQGTQVTVSS,high polyreactivity
19,QVQLVESGGGLVQAGGSLRLSCAASGFIFSSYAMGWYRQAPGKERELVAAISKSGDRTSYADSVKGRFTISRDNAKNTVYLQMNSLKPEDTAVYYCAKDRLYRTKKYRDMYYWGQGTQVTVSS,high polyreactivity
20,QVQLVESGGGLVQAGGSLRLSCAASGFIFSVNAMGWYRQAPGKERELVAAISKRGGRTYYADSVKGRFTISRDNAKNTVYLQMNSLKPEDTAVYYCAADQPTLAYPGGYSAGMDYWGQGTQVTVSS,high polyreactivity
